In the experiment the target is h4#147D, humanized IgG4-formatted anti-CD147 antibody (IgG4Pro, heavy chain S228P) (human). Description: SPR; Biacore T200; purified h4#147D captured on the sensor chip with a human antibody capture kit, recombinant human or monkey CD147 injected; 1:1 fitting model. A general note: In SPR one partner is held on a chip, and binding of the other changes the refractive index at the surface.
Chain of h4#147D, humanized IgG4-formatted anti-CD147 antibody (IgG4Pro, heavy chain S228P) (human) (heavy, as listed by the source, chain 1 of 2): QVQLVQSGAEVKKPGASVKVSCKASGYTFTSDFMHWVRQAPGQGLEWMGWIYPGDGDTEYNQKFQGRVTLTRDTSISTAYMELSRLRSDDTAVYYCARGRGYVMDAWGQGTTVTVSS
Chain of h4#147D, humanized IgG4-formatted anti-CD147 antibody (IgG4Pro, heavy chain S228P) (human) (light, as listed by the source, chain 2 of 2): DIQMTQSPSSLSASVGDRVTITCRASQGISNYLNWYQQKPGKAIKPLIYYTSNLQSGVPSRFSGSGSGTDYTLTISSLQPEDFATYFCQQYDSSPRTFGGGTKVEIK

For “recombinant monkey CD147 protein (natural protein)”, the Kd worked out at 5.8 nM.

The Kd is the free concentration of one partner at which half of the binding sites on the other are occupied at equilibrium, for simple one-to-one binding.

These data come from article PMC9652086.
